Test results published in the supplement of paper PMC9112550, “Optimization of the antimicrobial peptide Bac7 by deep mutational scanning” (BMC Biology, 2022).

What follows are sequences tested on Escherichia coli TOP10 (assay: shrunken log2 fold change of peptide-encoding DNA abundance (4.5 h post-induction vs induction); higher = less antimicrobial activity (less host growth inhibition)). Conditions: time post-induction: 4.5 h; library: site-saturation at positions 5, 18, 19, 20.
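Note: peptides expressed intracellularly from a pBAD plasmid library in pooled LB shake-flask culture, induced with 0.3% L-arabinose, DNA abundance read by NGS, three biological replicates, DESeq2 with apeglm shrinkage.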

| Sequence | shrunken log2 fold change |
| --- | --- |
| RRIRNRPPRLPRPRPRPSLFPRP | -0.453 |
| RRIRNRPPRLPRPRPRPSLMPRP | 0.0538 |
| RRIRNRPPRLPRPRPRPSMDPRP | 0.00334 |
| RRIRNRPPRLPRPRPRPSQHPRP | -0.0437 |
| RRIRNRPPRLPRPRPRPSQTPRP | -0.00249 |
| RRIRNRPPRLPRPRPRPSSFPRP | -0.127 |
| RRIRNRPPRLPRPRPRPSVFPRP | -0.342 |
| RRIRNRPPRLPRPRPRPSWIPRP | -0.425 |
| RRIRNRPPRLPRPRPRPSYGPRP | -0.156 |
| RRIRNRPPRLPRPRPRPTAFPRP | 0.00576 |
| RRIRNRPPRLPRPRPRPTAPPRP | 0.517 |
| RRIRNRPPRLPRPRPRPTCDPRP | 0.0801 |
| RRIRNRPPRLPRPRPRPTCMPRP | 0.0558 |
| RRIRNRPPRLPRPRPRPTDGPRP | -0.113 |
| RRIRNRPPRLPRPRPRPTFSPRP | -0.269 |
| RRIRNRPPRLPRPRPRPTFWPRP | 0.323 |
| RRIRNRPPRLPRPRPRPTGKPRP | -0.0851 |
| RRIRNRPPRLPRPRPRPTIEPRP | 0.0325 |
| RRIRNRPPRLPRPRPRPTKDPRP | -0.197 |
| RRIRNRPPRLPRPRPRPTLDPRP | 0.221 |
| RRIRNRPPRLPRPRPRPTLFPRP | 0.0912 |
| RRIRNRPPRLPRPRPRPTLIPRP | -0.461 |

| Sequence | shrunken log2 fold change |
| --- | --- |
| RRIRNRPPRLPRPRPRPTMTPRP | 0.149 |
| RRIRNRPPRLPRPRPRPTNNPRP | -0.545 |
| RRIRNRPPRLPRPRPRPTPKPRP | 0.222 |
| RRIRNRPPRLPRPRPRPTPVPRP | 0.425 |
| RRIRNRPPRLPRPRPRPTPWPRP | 0.161 |
| RRIRNRPPRLPRPRPRPTQYPRP | 0.095 |
| RRIRNRPPRLPRPRPRPTRGPRP | 0.725 |
| RRIRNRPPRLPRPRPRPTSAPRP | 0.163 |
| RRIRNRPPRLPRPRPRPTSEPRP | 0.194 |
| RRIRNRPPRLPRPRPRPTTCPRP | -0.275 |
| RRIRNRPPRLPRPRPRPTTPPRP | 0.152 |
| RRIRNRPPRLPRPRPRPTTSPRP | -0.292 |
| RRIRNRPPRLPRPRPRPTTWPRP | -0.246 |
| RRIRNRPPRLPRPRPRPTVDPRP | 0.0566 |
| RRIRNRPPRLPRPRPRPTWEPRP | 0.102 |
| RRIRNRPPRLPRPRPRPTYHPRP | -0.526 |
| RRIRNRPPRLPRPRPRPTYKPRP | -0.196 |
| RRIRNRPPRLPRPRPRPTYNPRP | -0.692 |
| RRIRNRPPRLPRPRPRPVCCPRP | -0.146 |
| RRIRNRPPRLPRPRPRPVCFPRP | -0.162 |
| RRIRNRPPRLPRPRPRPVCTPRP | -0.157 |
| RRIRNRPPRLPRPRPRPVCWPRP | 0.469 |

| Sequence | shrunken log2 fold change |
| --- | --- |
| RRIRNRPPRLPRPRPRPVDEPRP | 0.0158 |
| RRIRNRPPRLPRPRPRPVDKPRP | 0.0215 |
| RRIRNRPPRLPRPRPRPVDQPRP | -0.213 |
| RRIRNRPPRLPRPRPRPVDWPRP | 0.218 |
| RRIRNRPPRLPRPRPRPVFCPRP | 0.36 |
| RRIRNRPPRLPRPRPRPVFKPRP | -0.183 |
| RRIRNRPPRLPRPRPRPVFLPRP | -0.215 |
| RRIRNRPPRLPRPRPRPVGEPRP | 0.112 |
| RRIRNRPPRLPRPRPRPVGHPRP | -0.128 |
| RRIRNRPPRLPRPRPRPVINPRP | -0.512 |
| RRIRNRPPRLPRPRPRPVKCPRP | 0.0182 |
| RRIRNRPPRLPRPRPRPVLHPRP | -0.00264 |
| RRIRNRPPRLPRPRPRPVLMPRP | -0.14 |
| RRIRNRPPRLPRPRPRPVMGPRP | 0.147 |
| RRIRNRPPRLPRPRPRPVNIPRP | -0.435 |
| RRIRNRPPRLPRPRPRPVQVPRP | -0.317 |
| RRIRNRPPRLPRPRPRPVRYPRP | -0.0196 |
| RRIRNRPPRLPRPRPRPVSHPRP | -0.0709 |
| RRIRNRPPRLPRPRPRPVSIPRP | -0.0773 |
| RRIRNRPPRLPRPRPRPVSMPRP | -0.0312 |
| RRIRNRPPRLPRPRPRPVWFPRP | -0.113 |
| RRIRNRPPRLPRPRPRPVWWPRP | 0.259 |

| Sequence | shrunken log2 fold change |
| --- | --- |
| RRIRNRPPRLPRPRPRPWCYPRP | -0.428 |
| RRIRNRPPRLPRPRPRPWFIPRP | -0.306 |
| RRIRNRPPRLPRPRPRPWFLPRP | -0.0768 |
| RRIRNRPPRLPRPRPRPWFVPRP | -0.429 |
| RRIRNRPPRLPRPRPRPWGEPRP | 0.157 |
| RRIRNRPPRLPRPRPRPWGTPRP | 0.0962 |
| RRIRNRPPRLPRPRPRPWHAPRP | -0.0713 |
| RRIRNRPPRLPRPRPRPWHGPRP | -0.153 |
| RRIRNRPPRLPRPRPRPWHYPRP | -0.25 |
| RRIRNRPPRLPRPRPRPWIMPRP | -1.05 |
| RRIRNRPPRLPRPRPRPWLFPRP | 0.0966 |
| RRIRNRPPRLPRPRPRPWLSPRP | 0.0232 |
| RRIRNRPPRLPRPRPRPWMIPRP | -0.252 |
| RRIRNRPPRLPRPRPRPWNEPRP | -0.233 |
| RRIRNRPPRLPRPRPRPWNNPRP | -0.15 |
| RRIRNRPPRLPRPRPRPWPNPRP | -0.063 |
| RRIRNRPPRLPRPRPRPWQEPRP | -0.0629 |
| RRIRNRPPRLPRPRPRPWQWPRP | 0.144 |
| RRIRNRPPRLPRPRPRPWRDPRP | -0.342 |
| RRIRNRPPRLPRPRPRPWRWPRP | 0.0867 |
| RRIRNRPPRLPRPRPRPWSRPRP | 0.14 |
| RRIRNRPPRLPRPRPRPWSTPRP | -0.0852 |

| Sequence | shrunken log2 fold change |
| --- | --- |
| RRIRNRPPRLPRPRPRPWVHPRP | -0.288 |
| RRIRNRPPRLPRPRPRPWVSPRP | 0.069 |
| RRIRNRPPRLPRPRPRPWWHPRP | -0.104 |
| RRIRNRPPRLPRPRPRPWWTPRP | -0.129 |
| RRIRNRPPRLPRPRPRPWYEPRP | -0.0232 |
| RRIRNRPPRLPRPRPRPWYFPRP | -0.222 |
| RRIRNRPPRLPRPRPRPWYLPRP | -0.0197 |
| RRIRNRPPRLPRPRPRPYAWPRP | -0.141 |
| RRIRNRPPRLPRPRPRPYFIPRP | -0.645 |
| RRIRNRPPRLPRPRPRPYGEPRP | -0.16 |
| RRIRNRPPRLPRPRPRPYHVPRP | -0.116 |
| RRIRNRPPRLPRPRPRPYICPRP | -0.0343 |
| RRIRNRPPRLPRPRPRPYIFPRP | -0.327 |
| RRIRNRPPRLPRPRPRPYKPPRP | -0.0731 |
| RRIRNRPPRLPRPRPRPYLGPRP | -0.21 |
| RRIRNRPPRLPRPRPRPYLIPRP | -0.0464 |
| RRIRNRPPRLPRPRPRPYLRPRP | -0.0191 |
| RRIRNRPPRLPRPRPRPYLSPRP | -0.169 |
| RRIRNRPPRLPRPRPRPYLWPRP | -0.23 |
| RRIRNRPPRLPRPRPRPYNDPRP | -0.581 |
| RRIRNRPPRLPRPRPRPYPTPRP | -0.074 |
